Among the data in patent US12398178 (PARABILIS MEDICINES, dated 2025) are EC50 values, retold here.

This assay addresses T1, full-length β-Catenin (UniProt P35222 2-781, limits assumed).
T1 construct: mature; also called beta-catenin; beta-Catenin
T1 sequence (looked up): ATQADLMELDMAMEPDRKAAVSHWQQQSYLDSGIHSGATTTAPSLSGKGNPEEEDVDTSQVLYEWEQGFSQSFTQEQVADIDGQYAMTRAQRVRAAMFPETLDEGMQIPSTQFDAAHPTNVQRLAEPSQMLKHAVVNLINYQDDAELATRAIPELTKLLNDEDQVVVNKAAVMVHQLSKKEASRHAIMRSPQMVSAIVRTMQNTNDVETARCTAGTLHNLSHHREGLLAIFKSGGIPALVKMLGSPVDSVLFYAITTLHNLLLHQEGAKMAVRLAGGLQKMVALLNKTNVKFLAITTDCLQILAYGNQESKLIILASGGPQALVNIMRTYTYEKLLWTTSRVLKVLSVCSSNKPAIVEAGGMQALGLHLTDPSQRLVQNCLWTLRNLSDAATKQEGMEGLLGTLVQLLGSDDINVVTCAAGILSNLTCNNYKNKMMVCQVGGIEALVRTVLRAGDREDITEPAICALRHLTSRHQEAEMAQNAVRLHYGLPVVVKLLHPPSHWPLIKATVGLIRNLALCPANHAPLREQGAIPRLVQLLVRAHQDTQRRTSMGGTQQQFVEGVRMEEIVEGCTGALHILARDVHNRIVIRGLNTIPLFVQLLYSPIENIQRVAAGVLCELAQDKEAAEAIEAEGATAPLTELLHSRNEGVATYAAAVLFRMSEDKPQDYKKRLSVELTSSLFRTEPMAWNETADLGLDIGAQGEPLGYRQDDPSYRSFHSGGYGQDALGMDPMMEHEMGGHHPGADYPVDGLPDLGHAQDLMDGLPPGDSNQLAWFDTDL
In words: competition fluorescence polarization vs FITC-Axin peptide probe on full-length beta-catenin. As to the method: Peptide assessment: In one assay for assessing binding to beta-catenin, peptide solutions were prepared in buffer (50 mM Tris pH 8.0, 250 mM NaCl, 2% glycerol, 0.5 mM EDTA, 0.02% w/v sodium azide) using a 3-fold serial dilution from 5 μM. Probe solution (15 nM full-length β-Catenin, 20 nM FITC labeled Axin peptide in buffer ([FAM-PEG1-RRWPR(S5)ILD(S5)HVRRVWR (SEQ ID NO: 44)] where the two S5 residues are stapled, as reported in: Proc Natl Acad Sci USA. 2012 Oct. 30; 109(44):17942-7)) was prepared and incubated for 5 minutes, then 40 μL per well plated in a black polystyrene 384-well plate (Corning). Equal volume of the titrated peptide was added to the plate and incubated protected from light for 15 minutes prior to read. Reads were performed on a Spectramax M5 (Molecular Devices) in duplicate.
On the technique in general: Polarisation of emitted light reports the rotation of a fluorescent probe.

Positions of bridges follow the written chain, without caps; N, C: chain ends. No end group written: not given here. Linker 15a = not defined here; Linker 15b = not defined here; Linker 10 = not defined here; Linker 11 = not defined here; Linker 12 = not defined here; Linker 13 = not defined here; Linker 16 = not defined here; Linker 7 = not defined here

By EC50 is commonly meant the concentration at which the effect is half-maximal.

B1: Peptide ID 8, ADPAEDECILAAHMCRWW, staple type Linker 7 (peptide)
peptide: ADPAEDECILAAHMCRWW
modifications: linker 8-15 via Linker 7 (inferred); reading uncertain
notes: synthetic cysteine-stapled peptide
Molecule B1 had an EC50 of 0.255 µM.

B2: Peptide ID 42, ADPALWACEHAALICETQ, staple type Linker 12 (peptide)
peptide: ADPALWACEHAALICETQ
modifications: linker 8-15 via Linker 12 (inferred); reading uncertain
notes: as for B1
Molecule B2 displayed an EC50 of 4.52 µM.

B3: Peptide ID 34, ADPATHRCEWAALHCELV, staple type Linker 13 (peptide)
peptide: ADPATHRCEWAALHCELV
modifications: linker 8-15 via Linker 13 (inferred); reading uncertain
notes: as for B1
On to B3, for which the midpoint of the response, the EC50, lay at 4.32 µM.

B4: Peptide ID 2, ADPALWACEHAALICETQ, staple type Linker 7 (peptide)
peptide: ADPALWACEHAALICETQ
modifications: linker 8-15 via Linker 7 (inferred); reading uncertain
notes: as for B1
With B4, the EC50 came out at 2.8 µM.

B5: Peptide ID 6, ADPAQDHCILDTHICRIW, staple type Linker 7 (peptide)
peptide: ADPAQDHCILDTHICRIW
modifications: linker 8-15 via Linker 7 (inferred); reading uncertain
notes: as for B1
As for B5, the EC50 came out at 0.047 µM.

B6: Peptide ID 14, ADPAQWPCEHAALLCEIE, staple type Linker 7 (peptide)
peptide: ADPAQWPCEHAALLCEIE
modifications: linker 8-15 via Linker 7 (inferred); reading uncertain
notes: as for B1
Consider B6, for which the EC50 came out at 0.404 µM.

B7: Peptide ID 13, ADPAYWLCEHAALICEVE, staple type Linker 7 (peptide)
peptide: ADPAYWLCEHAALICEVE
modifications: linker 8-15 via Linker 7 (inferred); reading uncertain
notes: as for B1
B7 returned an EC50 of 0.456 µM.

B8: Peptide ID 44, ADPALWACEHAALICETQ, staple type Linker 15a (peptide)
peptide: ADPALWACEHAALICETQ
modifications: linker 8-15 via Linker 15a (inferred); reading uncertain
notes: as for B1
The molecule B8 had an EC50 of 7.33 µM.

B9: Peptide ID 10, ADPAQWHCEHAALICELD, staple type Linker 7 (peptide)
peptide: ADPAQWHCEHAALICELD
modifications: linker 8-15 via Linker 7 (inferred); reading uncertain
notes: as for B1
For B9, the EC50 was found to be 0.417 µM.

B10: Peptide ID 40, ADPALWACEHAALICETQ, staple type Linker 10 (peptide)
peptide: ADPALWACEHAALICETQ
modifications: linker 8-15 via Linker 10 (inferred); reading uncertain
notes: as for B1
B10 came in with a 50% effective concentration (EC50) of 9.55 µM.

B11: Peptide ID 11, ADPAPWQCEHAALLCELE, staple type Linker 7 (peptide)
peptide: ADPAPWQCEHAALLCELE
modifications: linker 8-15 via Linker 7 (inferred); reading uncertain
notes: as for B1
B11 had a half-maximal effective concentration (EC50) of 0.922 µM.

B12: Peptide ID 7, ADPAEDECILNNHICRIW, staple type Linker 7 (peptide)
peptide: ADPAEDECILNNHICRIW
modifications: linker 8-15 via Linker 7 (inferred); reading uncertain
notes: as for B1
Molecule B12 registered an EC50 of 0.014 µM.

B13: Peptide ID 1, ADPATHRCEWAALHCELV, staple type Linker 7 (peptide)
peptide: ADPATHRCEWAALHCELV
modifications: linker 8-15 via Linker 7 (inferred); reading uncertain
notes: as for B1
B13: a half-maximal response (EC50) required 5.2 µM.

B14: Peptide ID 43, ADPALWACEHAALICETQ, staple type Linker 13 (peptide)
peptide: ADPALWACEHAALICETQ
modifications: linker 8-15 via Linker 13 (inferred); reading uncertain
notes: as for B1
The molecule B14 came in with an EC50 of 4.59 µM.

B15: Peptide ID 41, ADPALWACEHAALICETQ, staple type Linker 11 (peptide)
peptide: ADPALWACEHAALICETQ
modifications: linker 8-15 via Linker 11 (inferred); reading uncertain
notes: as for B1
On to B15, for which the EC50 is 3.02 µM.

B16: Peptide ID 4, ADPALADCILAAHMCQLW, staple type Linker 7 (peptide)
peptide: ADPALADCILAAHMCQLW
modifications: linker 8-15 via Linker 7 (inferred); reading uncertain
notes: as for B1
The molecule B16 yielded an EC50 of 5.52 µM.

B17: Peptide ID 45, ADPALWACEHAALICETQ, staple type Linker 15b (peptide)
peptide: ADPALWACEHAALICETQ
modifications: linker 8-15 via Linker 15b (inferred); reading uncertain
notes: as for B1
The molecule B17 displayed an EC50 of 5.57 µM.

B18: Peptide ID 12, ADPADWECEHAALICDAM, staple type Linker 7 (peptide)
peptide: ADPADWECEHAALICDAM
modifications: linker 8-15 via Linker 7 (inferred); reading uncertain
notes: as for B1
Molecule B18 gave an EC50 of 0.815 µM.

B19: Peptide ID 33, ADPATHRCEWAALHCELV, staple type Linker 12 (peptide)
peptide: ADPATHRCEWAALHCELV
modifications: linker 8-15 via Linker 12 (inferred); reading uncertain
notes: as for B1
With B19, a half-maximal effect (EC50) was put at 5.35 µM.

B20: Peptide ID 32, ADPATHRCEWAALHCELV, staple type Linker 11 (peptide)
peptide: ADPATHRCEWAALHCELV
modifications: linker 8-15 via Linker 11 (inferred); reading uncertain
notes: as for B1
B20 came in with an EC50 of 5.17 µM.

B21: Peptide ID 46, ADPALWACEHAALICETQ, staple type Linker 16 (peptide)
peptide: ADPALWACEHAALICETQ
modifications: linker 8-15 via Linker 16 (inferred); reading uncertain
notes: as for B1
For the molecule B21, the midpoint of the response, the EC50, lay at 5.82 µM.

B22: Peptide ID 5, ADPAHAECVLDYHICQIW, staple type Linker 7 (peptide)
peptide: ADPAHAECVLDYHICQIW
modifications: linker 8-15 via Linker 7 (inferred); reading uncertain
notes: as for B1
Turning to B22, the EC50 amounted to 0.117 µM.
